Results on seven molecules are retold here after patent US20120316071A1 (published 2012).

Test [1] addresses T1, Recombinant Human DLL4 (R&D Systems Cat#1506-D4/CF) (human, UniProt Q9NR61 27-524).
T1 construct: also called rHuman DLL4; delta-like protein 4
Description: ECL (MSD) binding assay, Fab on immobilized recombinant human DLL4.

For test [2], the target named is T2, Recombinant Human DLL4 (delta-like protein 4) (human, UniProt Q9NR61 27-524).
T2 construct: also called rHuman DLL4; Delta-like 4
The test is described as follows: ELISA, Fab on plate-coated DLL4.

For test [3], the target named is T2, Recombinant Human DLL4 (delta-like …). Description: ECL (MSD) binding assay, Fab on immobilized DLL4.
The target in test [4] is T3, rHuman ErbB2/Fc Chimera, CF (R&D Systems Cat#1129-ER) (human, UniProt P04626 23-652).
T3 construct: Bought recombinant protein; also called human epidermal growth factor 2 receptor; Fc part of the bought chimera not given
Description: ECL multispot (MSD) binding assay, antigen spotted on plate, Fab 0.04 uM.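 Note: purified Fab incubated 1 h at 20 °C on antigen spots, detected via TAG-labelled antibody, ECL read against each well's blank, with signal-to-blank of at least 4 scored as binder.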

In test [5] the target is T4, rHuman EGF R/Fc Chimera, CF (R&D Systems Cat#344-ER) (human, UniProt P00533 25-645).
T4 construct: Bought recombinant protein; also called epidermal growth factor receptor; Fc part of the bought chimera not given
The description is as above.

The target of test [6] is T5, rHuman Notch-1/Fc Chimera, CF (R&D Systems Cat#3647-TK) (human, UniProt P46531 19-526).
T5 construct: Bought recombinant protein; Fc part of the bought chimera not given
The description is as above.

Test [7] addresses T6, rHuman CD44/Fc Chimera, CF (R&D Systems Cat#3660-CD) (human, UniProt P16070 21-220).
T6 construct: Bought recombinant protein; Fc part of the bought chimera not given
The description is as above.

For test [8], the target named is T7, rHuman P-Cadherin/Fc Chimera, CF (R&D Systems Cat#861-PC) (human, UniProt P22223 108-654).
T7 construct: Bought recombinant protein; Fc part of the bought chimera not given
The test is described as above.

In test [9] the target is T8, rHuman Erythropoietin R/Fc Chimera, CF (R&D Systems Cat#963-ER) (human, UniProt P19235 25-250).
T8 construct: Bought recombinant protein; also called EPO R; EPO R/Fc; Fc part of the bought chimera not given
T8 sequence (looked up): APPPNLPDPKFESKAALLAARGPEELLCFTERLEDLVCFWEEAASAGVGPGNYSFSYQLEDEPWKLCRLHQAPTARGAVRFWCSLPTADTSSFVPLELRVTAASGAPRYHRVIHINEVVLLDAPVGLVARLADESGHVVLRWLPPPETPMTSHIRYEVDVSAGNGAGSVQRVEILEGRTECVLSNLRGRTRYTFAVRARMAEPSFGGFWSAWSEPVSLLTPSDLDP
The test is described as above.

The target of test [10] is T9, Recombinant Human DLL4 (R&D Systems Cat#1506-D4/CF) (human, UniProt Q9NR61 27-524).
T9 construct: Bought recombinant protein; also called delta-like protein 4; rHuman DLL4
Described as above.

B1: Fab VH5-51_IGHD5-18*01>3_IGHJ4*01 G100K/G104T/S28R (KT S28R) & V3-4_IGLJ1*01 (Fab, V domains shown)
VH: EVQLVQSGAEVKKPGESLKISCKGSGYRFTSYWIGWVRQMPGKGLEWMGIIYPGDSDTRYSPSFQGQVTISADKSISTAYLQWSSLKASDTAMYYCARRKYSYTYDYFDYWGQGTLVTVSS
VL: QTVVTQEPSFSVSPGGTVTLTCGLSSGSVSTSYYPSWYQQTPGQAPRTLIYSTNTRSSGVPDRFSGSILGNKAALTITGAQADDESDYYCVLYMGSGISYVFGTGTKVTVL
notes: Tested as Fab; CH1 with His6/Flag tags (plasmid A) and lambda CL (plasmid E) come from the expression vectors
For the molecule B1, the “ECL signal” value in test [1] is 6420.

B2: Fab VH5-51_IGHD5-18*01>3_IGHJ4*01 G100K/G104T/G24T/S28R/G35V (KT TRV) & V3-4_IGLJ1*01 (Fab, V domains shown)
VH: EVQLVQSGAEVKKPGESLKISCKTSGYRFTSYWIVWVRQMPGKGLEWMGIIYPGDSDTRYSPSFQGQVTISADKSISTAYLQWSSLKASDTAMYYCARRKYSYTYDYFDYWGQGTLVTVSS
VL: QTVVTQEPSFSVSPGGTVTLTCGLSSGSVSTSYYPSWYQQTPGQAPRTLIYSTNTRSSGVPDRFSGSILGNKAALTITGAQADDESDYYCVLYMGSGISYVFGTGTKVTVL
notes: Tested as Fab; CH1 with His6/Flag tags (plasmid A) and lambda CL (plasmid E) come from the expression vectors; also called H:KT TRV & L:wt
Regarding B2, the “ECL signal” value in test [1] was determined as 26100.

B3: Fab VH5-51_IGHD5-18*01>3_IGHJ4*01 G100K/G104T S28R & V3-4_IGLJ1*01 (Fab, V domains shown)
VH: EVQLVQSGAEVKKPGESLKISCKGSGYRFTSYWIGWVRQMPGKGLEWMGIIYPGDSDTRYSPSFQGQVTISADKSISTAYLQWSSLKASDTAMYYCARRKYSYTYDYFDYWGQGTLVTVSS
VL: QTVVTQEPSFSVSPGGTVTLTCGLSSGSVSTSYYPSWYQQTPGQAPRTLIYSTNTRSSGVPDRFSGSILGNKAALTITGAQADDESDYYCVLYMGSGISYVFGTGTKVTVL
notes: Fab from E. coli: VH-CH1 from Plasmid A with His6 and Flag tags, VL with lambda CL from Plasmid E; also called KT S28R
Regarding B3, the “ELISA (Signal-Noise)” value in test [2] was determined as 0.29. In addition, in [3], the “ECL signal” value was 51400.

B4: Fab VH5-51_IGHD5-18*01>3_IGHJ4*01 G100K/G104T (H:KT) & V3-4_IGLJ1*01 M94A (Fab, V domains shown)
VH: EVQLVQSGAEVKKPGESLKISCKGSGYSFTSYWIGWVRQMPGKGLEWMGIIYPGDSDTRYSPSFQGQVTISADKSISTAYLQWSSLKASDTAMYYCARRKYSYTYDYFDYWGQGTLVTVSS
VL: QTVVTQEPSFSVSPGGTVTLTCGLSSGSVSTSYYPSWYQQTPGQAPRTLIYSTNTRSSGVPDRFSGSILGNKAALTITGAQADDESDYYCVLYAGSGISYVFGTGTKVTVL
notes: Fab; Expressed from Plasmid A (CH1, His6 and Flag tags) and Plasmid E (lambda CL); also called KT & M94A
With B4, the ECL signal is 1200 in test [4]; 1130 in [5]; 574 in [6]; 633 in test [7]; 472 in test [8]; 614 in test [9]. Further, in test [10], the ECL signal was 35300.

B5: Fab VH5-51_IGHD5-18*01>3_IGHJ4*01 G100K/G104T G35V & V3-4_IGLJ1*01 (Fab, V domains shown)
VH: EVQLVQSGAEVKKPGESLKISCKGSGYSFTSYWIVWVRQMPGKGLEWMGIIYPGDSDTRYSPSFQGQVTISADKSISTAYLQWSSLKASDTAMYYCARRKYSYTYDYFDYWGQGTLVTVSS
VL: QTVVTQEPSFSVSPGGTVTLTCGLSSGSVSTSYYPSWYQQTPGQAPRTLIYSTNTRSSGVPDRFSGSILGNKAALTITGAQADDESDYYCVLYMGSGISYVFGTGTKVTVL
notes: Fab from E. coli: VH-CH1 from Plasmid A with His6 and Flag tags, VL with lambda CL from Plasmid E; also called KT G35V
For B5, the “ELISA (Signal-Noise)” value in [2] amounted to 0.09. For the same molecule, in test [3], the “ECL signal” value came out at 21200.

B6: Fab VH5-51_IGHD5-18*01>3_IGHJ4*01 G100K/G104T/G24A/S28R/G35V (KT ARV) & V3-4_IGLJ1*01 (Fab, V domains shown)
VH: EVQLVQSGAEVKKPGESLKISCKASGYRFTSYWIVWVRQMPGKGLEWMGIIYPGDSDTRYSPSFQGQVTISADKSISTAYLQWSSLKASDTAMYYCARRKYSYTYDYFDYWGQGTLVTVSS
VL: QTVVTQEPSFSVSPGGTVTLTCGLSSGSVSTSYYPSWYQQTPGQAPRTLIYSTNTRSSGVPDRFSGSILGNKAALTITGAQADDESDYYCVLYMGSGISYVFGTGTKVTVL
notes: as for B1
On to B6, for which the “ECL signal” value in [1] is 17400.

B7: Fab VH5-51_IGHD5-18*01>3_IGHJ4*01 G100K/G104T S28N & V3-4_IGLJ1*01 (Fab, V domains shown)
VH: EVQLVQSGAEVKKPGESLKISCKGSGYNFTSYWIGWVRQMPGKGLEWMGIIYPGDSDTRYSPSFQGQVTISADKSISTAYLQWSSLKASDTAMYYCARRKYSYTYDYFDYWGQGTLVTVSS
VL: QTVVTQEPSFSVSPGGTVTLTCGLSSGSVSTSYYPSWYQQTPGQAPRTLIYSTNTRSSGVPDRFSGSILGNKAALTITGAQADDESDYYCVLYMGSGISYVFGTGTKVTVL
notes: Fab from E. coli: VH-CH1 from Plasmid A with His6 and Flag tags, VL with lambda CL from Plasmid E; also called KT S28N
As for B7, the “ELISA (Signal-Noise)” value in test [2] is 0.09. Also, the “ECL signal” value in test [3] was found to be 17300.
